Results reported in patent publication US20220042033A1, “COMPOSITION AND METHOD FOR CONFERRING AND/OR ENHANCING TOLERANCE AGAINST HERBICIDES BY USING VARIANTS OF PPO” (FarmHannong Co., Ltd., priority 2017, published 2022).

Test system: ApPPO1
Test: Herbicide tolerance test of ApPPO1 wild type and variants in PPO-deficient E. coli BT3(ΔPPO), growth on herbicide-containing LB agar
Format: cell-based, Auxenochlorella protothecoides
Details: relative to ApPPO1 WT, dark; for Herbicide tolerance, flumioxazin: up to 100 μM (FIGS. 7-12); for Herbicide tolerance, tiafenacil: up to 200 μM (FIGS. 7-12); for Herbicide tolerance, sulfentrazone: up to 400 μM (FIGS. 7-12)
Method: Then, the extent of tolerance was evaluated.

Molecule | Herbicide tolerance, flumioxazin | Herbicide tolerance, tiafenacil | Herbicide tolerance, sulfentrazone
V213C + Y422T: ApPPO1 (SEQ ID NO: 1) variant (protein, Synthetic (Protoporphyrinogen IX oxidase (ApPPO1) of Auxenochlorella protothecoides)) MPFTHLKPLNRLLGSPRARHPHVAPQAVSVTNTSTTRPGGRSSAPGIPGDAEYDVVIVGAGISGLTTAQALAKQYSDAVPRLLVTEARDCVGGNIITRRDGGYQWEEGPNSFQPSDAVLRAAVDAGVADRLVLGDPKAPRYVYWGGRLRATPSGPDVLTFDLLSLWGKLRAGLGAAGFKAPLPEREESVKEFVTRNLGEEVFQRLIEPFCSGCYAGDPAKLSMKAAFGKVYDLEKGGGSIVGGVLALMKARKQKPPEPRPADLPPKPKGQTVGSFDKGLVTLPSAIAEELGDRVVTGWKLESIDRSGDRFQLTYDTPQGRKKVSARSVALTVPAYTAASLLESRFPKLGKALSSIYYPPVASVALSYPETAILPERLGSDGHLAGFGQLHPRTQGVTTLGTIYASSLFPGRVPEGKVLLLSTFGGATNTRVATMPHGEIVSQVDKDLRKMLIRSDAESPHTVNVTVWPRAIPQFNVGHTDLIQEAKDDLASQGWQGLHLGGNYVAGVALGKCMEAGYKQAAELASHVKSLAT | +++++ (more than 10,000 fold higher tolerance) | +++++ (more than 10,000 fold higher tolerance) | ++++ (1,000-9,999 fold higher tolerance)
A215L + Y422I: ApPPO1 (SEQ ID NO: 1) variant (protein, Synthetic (Protoporphyrinogen IX oxidase (ApPPO1) of Auxenochlorella protothecoides)) MPFTHLKPLNRLLGSPRARHPHVAPQAVSVTNTSTTRPGGRSSAPGIPGDAEYDVVIVGAGISGLTTAQALAKQYSDAVPRLLVTEARDCVGGNIITRRDGGYQWEEGPNSFQPSDAVLRAAVDAGVADRLVLGDPKAPRYVYWGGRLRATPSGPDVLTFDLLSLWGKLRAGLGAAGFKAPLPEREESVKEFVTRNLGEEVFQRLIEPFCSGVYLGDPAKLSMKAAFGKVYDLEKGGGSIVGGVLALMKARKQKPPEPRPADLPPKPKGQTVGSFDKGLVTLPSAIAEELGDRVVTGWKLESIDRSGDRFQLTYDTPQGRKKVSARSVALTVPAYTAASLLESRFPKLGKALSSIYYPPVASVALSYPETAILPERLGSDGHLAGFGQLHPRTQGVTTLGTIYASSLFPGRVPEGKVLLLSIFGGATNTRVATMPHGEIVSQVDKDLRKMLIRSDAESPHTVNVTVWPRAIPQFNVGHTDLIQEAKDDLASQGWQGLHLGGNYVAGVALGKCMEAGYKQAAELASHVKSLAT | ++++ (1,000-9,999 fold higher tolerance) | ++++ (1,000-9,999 fold higher tolerance) | ++++ (1,000-9,999 fold higher tolerance)
A215C + Y422I: ApPPO1 (SEQ ID NO: 1) variant (protein, Synthetic (Protoporphyrinogen IX oxidase (ApPPO1) of Auxenochlorella protothecoides)) MPFTHLKPLNRLLGSPRARHPHVAPQAVSVTNTSTTRPGGRSSAPGIPGDAEYDVVIVGAGISGLTTAQALAKQYSDAVPRLLVTEARDCVGGNIITRRDGGYQWEEGPNSFQPSDAVLRAAVDAGVADRLVLGDPKAPRYVYWGGRLRATPSGPDVLTFDLLSLWGKLRAGLGAAGFKAPLPEREESVKEFVTRNLGEEVFQRLIEPFCSGVYCGDPAKLSMKAAFGKVYDLEKGGGSIVGGVLALMKARKQKPPEPRPADLPPKPKGQTVGSFDKGLVTLPSAIAEELGDRVVTGWKLESIDRSGDRFQLTYDTPQGRKKVSARSVALTVPAYTAASLLESRFPKLGKALSSIYYPPVASVALSYPETAILPERLGSDGHLAGFGQLHPRTQGVTTLGTIYASSLFPGRVPEGKVLLLSIFGGATNTRVATMPHGEIVSQVDKDLRKMLIRSDAESPHTVNVTVWPRAIPQFNVGHTDLIQEAKDDLASQGWQGLHLGGNYVAGVALGKCMEAGYKQAAELASHVKSLAT | +++++ (more than 10,000 fold higher tolerance) | +++++ (more than 10,000 fold higher tolerance) | ++++ (1,000-9,999 fold higher tolerance)
A215C + Y422T: ApPPO1 (SEQ ID NO: 1) variant (protein, Synthetic (Protoporphyrinogen IX oxidase (ApPPO1) of Auxenochlorella protothecoides)) MPFTHLKPLNRLLGSPRARHPHVAPQAVSVTNTSTTRPGGRSSAPGIPGDAEYDVVIVGAGISGLTTAQALAKQYSDAVPRLLVTEARDCVGGNIITRRDGGYQWEEGPNSFQPSDAVLRAAVDAGVADRLVLGDPKAPRYVYWGGRLRATPSGPDVLTFDLLSLWGKLRAGLGAAGFKAPLPEREESVKEFVTRNLGEEVFQRLIEPFCSGVYCGDPAKLSMKAAFGKVYDLEKGGGSIVGGVLALMKARKQKPPEPRPADLPPKPKGQTVGSFDKGLVTLPSAIAEELGDRVVTGWKLESIDRSGDRFQLTYDTPQGRKKVSARSVALTVPAYTAASLLESRFPKLGKALSSIYYPPVASVALSYPETAILPERLGSDGHLAGFGQLHPRTQGVTTLGTIYASSLFPGRVPEGKVLLLSTFGGATNTRVATMPHGEIVSQVDKDLRKMLIRSDAESPHTVNVTVWPRAIPQFNVGHTDLIQEAKDDLASQGWQGLHLGGNYVAGVALGKCMEAGYKQAAELASHVKSLAT | +++ (100-999 fold higher tolerance) | +++ (100-999 fold higher tolerance) | +++ (100-999 fold higher tolerance)
A215L + Y422T: ApPPO1 (SEQ ID NO: 1) variant (protein, Synthetic (Protoporphyrinogen IX oxidase (ApPPO1) of Auxenochlorella protothecoides)) MPFTHLKPLNRLLGSPRARHPHVAPQAVSVTNTSTTRPGGRSSAPGIPGDAEYDVVIVGAGISGLTTAQALAKQYSDAVPRLLVTEARDCVGGNIITRRDGGYQWEEGPNSFQPSDAVLRAAVDAGVADRLVLGDPKAPRYVYWGGRLRATPSGPDVLTFDLLSLWGKLRAGLGAAGFKAPLPEREESVKEFVTRNLGEEVFQRLIEPFCSGVYLGDPAKLSMKAAFGKVYDLEKGGGSIVGGVLALMKARKQKPPEPRPADLPPKPKGQTVGSFDKGLVTLPSAIAEELGDRVVTGWKLESIDRSGDRFQLTYDTPQGRKKVSARSVALTVPAYTAASLLESRFPKLGKALSSIYYPPVASVALSYPETAILPERLGSDGHLAGFGQLHPRTQGVTTLGTIYASSLFPGRVPEGKVLLLSTFGGATNTRVATMPHGEIVSQVDKDLRKMLIRSDAESPHTVNVTVWPRAIPQFNVGHTDLIQEAKDDLASQGWQGLHLGGNYVAGVALGKCMEAGYKQAAELASHVKSLAT | + (1-9 fold higher tolerance) | + (1-9 fold higher tolerance) | ++++ (1,000-9,999 fold higher tolerance)
